Data published in US20050282743A1, “Molecular interactions in cells” (Arbor Vita Corporation, priority 2001, published 2005).

What was measured:
[1] = target: GST-KIAA1634 PDZ domain 1 (Homo sapiens (Human)), Q5TCQ9; test: G assay titration, PDZ 1 ug/ml
[2] = target: T1, GST-Atrophin-1 Interacting Protein PDZ domain 1 (Rattus norvegicus (Rat)), O88382; test: G assay titration, PDZ 5 ug/ml
[3] = target: T2, GST-Shank 1 PDZ domain 1 (Homo sapiens (Human)), Q9UPX8; test: G assay titration, PDZ 5 ug/ml
T2 chain: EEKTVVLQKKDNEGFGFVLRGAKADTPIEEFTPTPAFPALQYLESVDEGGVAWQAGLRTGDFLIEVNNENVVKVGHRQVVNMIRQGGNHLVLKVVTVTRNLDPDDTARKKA

[4] = target: T3, GST-NOS1 PDZ domain 1 (Homo sapiens (Human)), P29475; test: G' assay; conditions: remark: other sources report otherwise; note: key of the grades not given here
T3 chain: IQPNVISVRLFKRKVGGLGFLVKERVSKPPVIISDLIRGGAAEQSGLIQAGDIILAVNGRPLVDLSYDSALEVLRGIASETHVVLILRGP

[5] = target: GST-PSD95 PDZ domains 1, 2, 3 (Homo sapiens), P78352; test: G' assay; note: key of the grades not given here
Sequence of GST-PSD95 PDZ domains 1, 2, 3 (Homo sapiens), P78352 (P78352 62-395): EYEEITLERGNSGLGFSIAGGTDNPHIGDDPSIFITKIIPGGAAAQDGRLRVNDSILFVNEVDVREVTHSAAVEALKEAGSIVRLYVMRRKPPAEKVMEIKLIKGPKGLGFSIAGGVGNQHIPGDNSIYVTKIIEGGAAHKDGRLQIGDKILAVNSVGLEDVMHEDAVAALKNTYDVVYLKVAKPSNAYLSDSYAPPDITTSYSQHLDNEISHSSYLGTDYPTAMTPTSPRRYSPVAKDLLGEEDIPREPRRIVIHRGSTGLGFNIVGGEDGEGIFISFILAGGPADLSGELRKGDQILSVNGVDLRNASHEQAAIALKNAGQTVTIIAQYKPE

[6] = target: T1, GST-Atrophin-1 Interacting Protein PDZ …; test: G' assay; note: key of the grades not given here
[7] = target: T4, GST-EZRIN Binding Protein 50 PDZ domain 2 (Homo sapiens (Human)), O14745; test: G' assay; note: key of the grades not given here
T4 chain: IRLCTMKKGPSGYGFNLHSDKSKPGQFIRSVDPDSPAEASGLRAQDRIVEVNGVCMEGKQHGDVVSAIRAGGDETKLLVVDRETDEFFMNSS

[8] = target: T5, GST-KIAA1634 PDZ domain 2 (Homo sapiens (Human)), Q5TCQ9; test: G' assay; note: key of the grades not given here
T5 chain: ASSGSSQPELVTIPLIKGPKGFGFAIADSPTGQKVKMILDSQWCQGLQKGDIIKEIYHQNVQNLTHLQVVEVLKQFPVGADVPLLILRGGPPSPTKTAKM

[9] = target: T6, GST-Shank 3 PDZ domain 1 (human (hypothetical, computer cloned)), Q9BYB0; test: G' assay; note: key of the grades not given here
T6 chain: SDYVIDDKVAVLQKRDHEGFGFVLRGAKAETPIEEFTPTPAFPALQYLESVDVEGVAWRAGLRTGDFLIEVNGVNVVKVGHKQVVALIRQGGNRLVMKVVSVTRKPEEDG

[10] = target: T7, GST-MINT1 PDZ domains 1, 2, Q02410; test: G' assay; note: key of the grades not given here
T7 chain: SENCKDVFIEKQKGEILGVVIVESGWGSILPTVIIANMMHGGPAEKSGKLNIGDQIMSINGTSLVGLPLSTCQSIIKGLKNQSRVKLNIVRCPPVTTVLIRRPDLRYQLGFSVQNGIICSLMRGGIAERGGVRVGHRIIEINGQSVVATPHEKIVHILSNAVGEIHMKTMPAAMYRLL

[11] = target: GST-KIAA807 [GST: P08515]; test: G' assay; note: key of the grades not given here
Sequence of GST-KIAA807 [GST: P08515] (P08515 whole entry, the tested form may be a part): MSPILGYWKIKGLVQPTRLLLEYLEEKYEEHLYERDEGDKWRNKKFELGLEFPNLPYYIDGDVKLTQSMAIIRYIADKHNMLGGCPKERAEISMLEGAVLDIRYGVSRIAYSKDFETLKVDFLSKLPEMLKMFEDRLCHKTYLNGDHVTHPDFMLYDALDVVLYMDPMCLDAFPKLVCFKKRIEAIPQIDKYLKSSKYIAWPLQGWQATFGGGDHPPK

[12] = target: T8, GST-FLJ 10324 PDZ domain 1 [GST: P08515]; test: G' assay; note: key of the grades not given here
T8 chain: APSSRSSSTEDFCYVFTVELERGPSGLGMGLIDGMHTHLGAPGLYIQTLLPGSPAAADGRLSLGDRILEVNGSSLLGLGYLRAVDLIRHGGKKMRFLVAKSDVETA

[13] = target: T9, GST-PTPL1 PDZ domain 2 (Homo sapiens (Human)), Q12923; test: G' assay; note: key of the grades not given here
T9 chain: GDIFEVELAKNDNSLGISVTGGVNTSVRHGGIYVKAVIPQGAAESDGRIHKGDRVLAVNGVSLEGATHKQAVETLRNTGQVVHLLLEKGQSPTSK

[14] = target: T10, GST-NeDLG PDZ domain 3 (Mus musculus (Mouse)), P70175; test: G' assay; note: key of the grades not given here
T10 chain: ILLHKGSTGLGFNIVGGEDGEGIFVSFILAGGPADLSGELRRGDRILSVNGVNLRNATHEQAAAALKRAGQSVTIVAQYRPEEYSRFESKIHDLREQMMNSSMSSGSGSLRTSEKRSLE

[15] = target: T11, GST-PTPL1 PDZ domain 4 (Homo sapiens (Human)), Q12923; test: G' assay; note: key of the grades not given here
T11 chain: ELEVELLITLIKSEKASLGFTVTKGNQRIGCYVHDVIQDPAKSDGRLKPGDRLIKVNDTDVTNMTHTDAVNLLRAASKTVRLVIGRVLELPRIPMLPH

[16] = target: T2, GST-Shank 1 PDZ domain 1 (Homo sapiens …); test: G' assay; note: key of the grades not given here
[17] = target: T12, GST-NeDLG PDZ domains 1, 2, Q92796; test: G' assay; note: key of the grades not given here
T12 chain: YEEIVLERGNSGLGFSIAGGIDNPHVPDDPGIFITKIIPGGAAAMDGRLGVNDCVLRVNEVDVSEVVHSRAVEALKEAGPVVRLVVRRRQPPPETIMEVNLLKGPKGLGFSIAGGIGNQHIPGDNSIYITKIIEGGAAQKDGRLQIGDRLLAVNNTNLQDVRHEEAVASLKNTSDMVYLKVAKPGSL

[18] = target: T13, GST-INADL PDZ domain 8 (Homo sapiens (Human)), Q8NI35; test: G' assay; note: key of the grades not given here
T13 chain: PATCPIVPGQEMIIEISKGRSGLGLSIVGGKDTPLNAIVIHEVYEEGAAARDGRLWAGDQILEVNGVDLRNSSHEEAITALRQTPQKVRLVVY

[19] = target: T14, GST-ZO-1 PDZ domain 1 (Rattus norvegicus (Rat)), A0A0G2; test: G' assay; note: key of the grades not given here
T14 chain: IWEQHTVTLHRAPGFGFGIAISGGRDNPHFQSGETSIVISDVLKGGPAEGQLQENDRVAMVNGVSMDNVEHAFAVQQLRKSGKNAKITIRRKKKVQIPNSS

[20] = target: T15, GST-TIP1 PDZ domain 1 (Table 9 insert) (Homo sapiens (Human)), O14907; test: G' assay; note: key of the grades not given here
T15 chain: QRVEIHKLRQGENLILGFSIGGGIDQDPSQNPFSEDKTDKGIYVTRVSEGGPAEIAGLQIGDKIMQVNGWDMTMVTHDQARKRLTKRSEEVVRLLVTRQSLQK

[21] = target: GST-DLG1 PDZ domains 1, 2 (Homo sapiens), Q12959; test: G' assay; note: key of the grades not given here
[22] = target: GST-KIAA1634 PDZ domain 1 (Homo sapiens (Human)), Q5TCQ9; test: G' assay; note: key of the grades not given here
[23] = target: T16, GST-EZRIN Binding Protein 50 PDZ domain 1 (Homo sapiens (Human)), O14745; test: G' assay; note: key of the grades not given here
T16 chain: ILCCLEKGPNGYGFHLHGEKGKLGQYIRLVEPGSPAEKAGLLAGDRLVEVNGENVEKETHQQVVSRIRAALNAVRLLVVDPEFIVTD

[24] = target: T17, GST-KIAA0807(S) PDZ domain 1 (Homo sapiens (Human)), Q6P0Q8; test: G' assay; note: key of the grades not given here
T17 chain: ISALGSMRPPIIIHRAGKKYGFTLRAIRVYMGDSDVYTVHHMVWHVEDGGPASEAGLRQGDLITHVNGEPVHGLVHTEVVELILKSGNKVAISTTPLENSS

[25] = target: T17, GST-KIAA0807(S) PDZ domain 1 (Homo …); test: G assay titration, PDZ 0.5 ug/ml
[26] = target: T9, GST-PTPL1 PDZ domain 2 (Homo sapiens …); test: G assay titration, PDZ 1 ug/ml
[27] = target: T18, GST-MINT1 PDZ domain 2 (Mus musculus (Mouse)), B2RUJ5; test: G' assay; note: key of the grades not given here
T18 chain: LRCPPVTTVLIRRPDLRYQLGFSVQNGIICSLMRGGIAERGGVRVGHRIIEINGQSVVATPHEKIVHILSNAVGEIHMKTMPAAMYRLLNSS

[28] = target: T19, GST-MUPP1 PDZ domain 13 (Homo sapiens (Human)), O75970; test: G' assay; note: key of the grades not given here
T19 chain: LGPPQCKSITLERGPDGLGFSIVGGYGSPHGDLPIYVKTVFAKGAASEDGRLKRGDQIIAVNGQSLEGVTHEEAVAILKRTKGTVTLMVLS

[29] = target: GST-BAI-1 Associated Protein PDZ domain 3 (Homo sapiens (Human)), Q96QZ7; test: G' assay; note: key of the grades not given here
Sequence of GST-BAI-1 Associated Protein PDZ domain 3 (Homo sapiens (Human)), Q96QZ7 (Q96QZ7 other isoform, or with tags, fused parts or gaps): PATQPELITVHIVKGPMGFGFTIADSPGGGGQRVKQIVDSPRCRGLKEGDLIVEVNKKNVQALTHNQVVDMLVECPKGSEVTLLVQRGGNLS

[30] = target: GST-PIST PDZ domain 1 (Mus musculus (Mouse)), Q8BH60; test: G' assay; note: key of the grades not given here
[31] = target: T20, GST-HEMBA 1003117 PDZ domain 1 (Homo sapiens (Human)), Q96JH8; test: G' assay; note: key of the grades not given here
T20 chain: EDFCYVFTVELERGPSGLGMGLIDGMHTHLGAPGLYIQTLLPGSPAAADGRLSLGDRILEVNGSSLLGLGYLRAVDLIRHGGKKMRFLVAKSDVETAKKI

[32] = target: T21, GST-GRIP 1 PDZ domain 3 (Homo sapiens (Human)), Q9Y3R0; test: G' assay; note: key of the grades not given here
T21 chain: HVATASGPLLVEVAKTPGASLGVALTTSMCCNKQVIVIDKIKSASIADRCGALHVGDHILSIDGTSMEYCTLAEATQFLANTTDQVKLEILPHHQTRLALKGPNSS

[33] = target: GST-Atrophin-1 Interacting Protein PDZ domain 5 (Rattus norvegicus (Rat)), O88382; test: G' assay; note: key of the grades not given here
Sequence of GST-Atrophin-1 Interacting Protein PDZ domain 5 (Rattus norvegicus (Rat)), O88382 (O88382 1128-1225): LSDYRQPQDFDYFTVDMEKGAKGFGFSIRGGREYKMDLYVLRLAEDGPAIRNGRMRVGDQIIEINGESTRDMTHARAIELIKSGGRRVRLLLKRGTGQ

[34] = target: T22, GST-AIPC PDZ domain 1 (Homo sapiens (Human)), O15018; test: G' assay; note: key of the grades not given here
T22 chain: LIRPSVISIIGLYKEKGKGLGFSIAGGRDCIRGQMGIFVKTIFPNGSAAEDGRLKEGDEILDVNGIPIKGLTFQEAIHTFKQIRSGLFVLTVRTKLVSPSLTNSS

[35] = target: T23, GST-Syntrophin gamma 1 PDZ domain 1 (Homo sapiens (Human)), Q9NSN8; test: G' assay; note: key of the grades not given here
T23 chain: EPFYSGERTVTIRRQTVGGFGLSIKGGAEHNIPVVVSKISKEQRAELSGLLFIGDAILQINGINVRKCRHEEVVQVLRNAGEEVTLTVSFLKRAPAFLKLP

[36] = target: T24, GST-FLJ00011 PDZ domain 1 (Homo sapiens (Human)), Q9H5P4; test: G' assay; note: key of the grades not given here
T24 chain: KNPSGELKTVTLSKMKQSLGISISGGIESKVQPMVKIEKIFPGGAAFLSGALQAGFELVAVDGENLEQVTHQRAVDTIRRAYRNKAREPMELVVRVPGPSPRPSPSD

[37] = target: GST-TAX IP2 PDZ domain 1 [GST: P08515]; test: G assay titration, PDZ 1 ug/ml
Sequence of GST-TAX IP2 PDZ domain 1 [GST: P08515] (P08515 whole entry, the tested form may be a part): as the sequence (P08515 whole entry, the tested form may be a part) above

[38] = target: GST-TAX IP2 PDZ domain 1 [GST: P08515]; test: G' assay

Sequence of GST-KIAA1634 PDZ domain 1 (Homo sapiens (Human)), Q5TCQ9 (Q5TCQ9 401-502): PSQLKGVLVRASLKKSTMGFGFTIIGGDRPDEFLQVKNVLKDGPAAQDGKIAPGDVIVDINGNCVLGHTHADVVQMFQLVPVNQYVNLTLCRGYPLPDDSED
T1 sequence (O88382 408-511): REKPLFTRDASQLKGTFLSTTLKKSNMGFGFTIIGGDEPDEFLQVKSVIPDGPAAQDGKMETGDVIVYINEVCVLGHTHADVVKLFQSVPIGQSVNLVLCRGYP

## TFAAGFNSTGLPHSTTRV (modifications not checked) [Neuroligin]
[1]
  Kd: 100 nM
[2]
  Kd: 250 nM
[3]
  Kd: 300 nM
[4]
  Classification: 1 A450 class
[5]
  Classification: 2 A450 class
[6]
  Classification: 2 A450 class
[7]
  Classification: 1 A450 class
[8]
  Classification: 2 A450 class
[9]
  Classification: 3 A450 class
[10]
  Classification: 1 A450 class
[11]
  Classification: 3 A450 class
[12]
  Classification: 1 A450 class
[13]
  Classification: 1 A450 class
[14]
  Classification: 1 A450 class
[15]
  Classification: 1 A450 class
[16]
  Classification: 2 A450 class
[17]
  Classification: 1 A450 class
[18]
  Classification: 1 A450 class
[19]
  Classification: 1 A450 class
[20]
  Classification: 1 A450 class
[21]
  Classification: 2 A450 class
[22]
  Classification: 4 A450 class
[23]
  Classification: 2 A450 class
[24]
  Classification: 3 A450 class

## DSDPENEPFDEDQHTQITKV (modifications not checked) [PTEN]
[25]
  Kd: 300 nM
[26]
  Kd: 300 nM
[3]
  Kd: 1500 nM
[27]
  Classification: 1 A450 class
[28]
  Classification: 5 A450 class
[29]
  Classification: 2 A450 class
[8]
  Classification: 5 A450 class
[30]
  Classification: 1 A450 class
[10]
  Classification: 1 A450 class
[11]
  Classification: 5 A450 class
[12]
  Classification: 1 A450 class
[13]
  Classification: 4 A450 class
[31]
  Classification: 1 A450 class
[32]
  Classification: 1 A450 class
[33]
  Classification: 2 A450 class
[15]
  Classification: 1 A450 class
[34]
  Classification: 1 A450 class
[16]
  Classification: 3 A450 class
[18]
  Classification: 1 A450 class
[35]
  Classification: 1 A450 class
[20]
  Classification: 2 A450 class
[36]
  Classification: 3 A450 class
[24]
  Classification: 5 A450 class

## VDSERRPHFPQFSYSASSTA (modifications not checked) [AKT1]
[37]
  Kd: 2500 nM
[38]
  Classification: 4 A450 class
[11]
  Classification: 1 A450 class
[24]
  Classification: 1 A450 class
